Data from patent publication US20150307627A1.

Molecular target: Human IgG
Test: method not given

Ka	Binder
> 4e+09 M⁻¹	IgG-Fc-14 (VHH) VHH: QVQLQESGGGLVQTGGSLRLSCSASGGTFETYAMGWFRQAPGKEREFVGSTNWKSERTYVADSVKGRFTISRDNGQYTAYLQMTSLKPEDTAVYFCVARSFGTGQWDYWGQGTQVTVSS
> 4e+09 M⁻¹	IgG-Fc-15 (VHH) VHH: QVQLQESGGGLVQAGGSLRLSCAVSGRGFSTYAMGWFRQAPGKEREFVGSANWKSGSIYVADSVKGRFTISNDNAQNTVYLQMSSLKPEDTAVYYCVARSFGTGQWDYWGQGTQVTVSS
> 4e+09 M⁻¹	IgG-Fc-11 (VHH) VHH: QVQLQESGGGLVQAGGSLRLSCAVSGRTFSTYAMGWFRQAPGKEREFVGSANWKSGSTYLVDSVKGRFTISGDNAHDTVHLQMTSLKPEDTGVYFCVARSFGTGQWDYWGQGTQVTVSS

More lines, now with the values behind:

Binder	Ka
IgG-Fc-12 (VHH) VHH: QVQLQESGGGLVQAGGSLRLSCAVSGRTFSTYAMGWFRQAPGKEREFVGSINFKSGSIYLADSVKGRFTISGDNAQNTAYLQMTSLKPEDTAVYLCVARSFGTGQWDYWGQGTQVTVSS	> 4e+09 M⁻¹
IgG-Fc-13 (VHH) VHH: QVQLQESGGGLVQAGGSLRLSCAASGDTFSTYAMGWFRQAPGKEREFVGRIVRGTESTYLIDSVKGRFAISRDNAQNTVYLQMTSLKPEDTAVYFCVARSFGAGQWDYWGQGTQVTVSS	> 4e+09 M⁻¹
